Among the data in publication PMC9513094 are fluorescence lifetime of the GFP donor in the presence of the RFP acceptor values, retold here.

The target in experiment [1] is GFP-TRB2 (Arabidopsis) (UniProt Q9FJW5). As to the kind of experiment: FRET or BRET; FRET-FLIM (TCSPC); GFP fusion as donor, RFP fusion as acceptor, co-expressed in plant cells; donor alone as control; 10 images a series.
Experiment [2] concerns the target GFP-TRB1 (Arabidopsis) (UniProt Q8VWK4). Described as above.
UniProt Q8VWK4, sequence (Q8VWK4 whole entry): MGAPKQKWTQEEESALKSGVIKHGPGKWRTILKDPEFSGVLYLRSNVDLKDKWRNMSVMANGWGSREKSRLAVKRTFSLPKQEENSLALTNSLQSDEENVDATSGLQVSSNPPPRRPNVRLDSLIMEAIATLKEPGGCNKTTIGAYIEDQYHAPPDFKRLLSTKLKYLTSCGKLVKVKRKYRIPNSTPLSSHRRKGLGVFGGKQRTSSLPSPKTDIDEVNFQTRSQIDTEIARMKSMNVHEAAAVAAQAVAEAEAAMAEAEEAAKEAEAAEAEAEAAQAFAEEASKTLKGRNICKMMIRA

UniProt Q9FJW5, sequence (Q9FJW5 whole entry, the tested form may be a part): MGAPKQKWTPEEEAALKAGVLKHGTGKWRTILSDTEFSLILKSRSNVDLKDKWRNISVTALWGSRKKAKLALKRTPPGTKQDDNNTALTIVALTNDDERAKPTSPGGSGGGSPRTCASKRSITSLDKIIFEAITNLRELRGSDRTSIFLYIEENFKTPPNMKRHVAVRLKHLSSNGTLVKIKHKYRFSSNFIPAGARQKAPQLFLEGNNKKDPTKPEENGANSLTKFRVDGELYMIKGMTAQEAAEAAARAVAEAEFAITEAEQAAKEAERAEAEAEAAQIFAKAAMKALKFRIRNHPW

B1: RFP-VAP27-1 (natural protein)
chain: MSNIDLIGMSNRDLIGMSNSELLTVEPLDLQFPFELKKQISCSLYLTNKTDNNVAFKVKTTNPKKYCVRPNTGVVLPRSTCEVLVTMQAQKEAPSDMQCKDKFLLQGVIASPGVTAKEVTPEMFSKEAGHRVEETKLRVTYVAPPRPPSPVHEGSEEGSSPRASVSDNGHGSEFSFERFIVDNKAGHQENTSEARALITKLTEEKQSAIQLNNRLQRELDQLRRESKKSQSGGIPFMYVLLVGLIGLILGYIMKRT
As to B1, the figures for the fluorescence lifetime of the GFP donor in the presence of the RFP acceptor in experiment [1] and in experiment [2] were 2.21 ns and 2.31 ns, respectively.

B2: RFP-ATG8e (natural protein)
chain: MNKGSIFKMDNDFEKRKAEAGRIREKYPDRIPVIVEKAEKSEVPNIDKKKYLVPSDLTVGQFVYVIRKRIKLSAEKAIFIFVDNVLPPTGELMSSVYEDKKDEDGFLYITYSGENTFG
Turning to B2, in experiment [2], the fluorescence lifetime of the GFP donor in the presence of the RFP acceptor is 2.3 ns.
